The text below walks through data of PMC7414021, “Dodecin as carrier protein for immunizations and bioengineering applications” (Scientific Reports, 2020).

For orientation: stoichiometry N means the number of molecules, sites or subunits per partner or assembly.

Holding throughout (experiment): SEC
Experiment [1] has as its target SpyT-PAS2-mtDod (Mycobacterium tuberculosis).
In experiment [2] the target is SpyT-mtDod (Mycobacterium tuberculosis).
The target of experiment [3] is SpyT-mtDod-SnpT (Mycobacterium tuberculosis).
Experiment [4] addresses mtDod-GSG-Lys (Mycobacterium tuberculosis).
The target in experiment [5] is mtDod-PAS2-SpyT (Mycobacterium tuberculosis).
Experiment [6] concerns the target mtDod-PAS-Met (Mycobacterium tuberculosis).
In experiment [7] the target is mtDod-SpyT (Mycobacterium tuberculosis).
For experiment [8], the target named is mtDod-msfGFP-H8 (Mycobacterium tuberculosis | not stated).

The substance SpyT-PAS2-mtDod showed a stoichiometry N in experiment [1] of 12. In turn, SpyT-mtDod displayed a stoichiometry N in experiment [2] of 12. Regarding SpyT-mtDod-SnpT, in experiment [3], the stoichiometry N amounted to 12.

The substance mtDod-GSG-Lys gave a stoichiometry N in experiment [4] of 12.

mtDod-PAS2-SpyT yielded a stoichiometry N in experiment [5] of 12. Consider mtDod-PAS-Met, for which the stoichiometry N in experiment [6] is 12. In turn, mtDod-SpyT showed a stoichiometry N in experiment [7] of 12.

In experiment [8], mtDod-msfGFP-H8 returned a stoichiometry N of 12.
